Consider one protein from paper PMC4069103, “Computational Design of a pH Stable Enzyme: Understanding Molecular Mechanism of Penicillin Acylase's Adaptation to Alkaline Conditions” (PLoS ONE, 2014).

Substrate in the data set: O=C(Cc1ccccc1)Nc1ccc([N+](=O)[O-])c(C(=O)O)c1
Briefly: purified protein. In kind it is biochemical, Escherichia coli. The following applies: pH 7.5, 25°C, 10 mM phosphate, 0.1 M KCl, hydrolysis.

As usually defined, the Km is the concentration of substrate that gives half-maximal velocity. A word on the kcat: it is the maximal rate divided by the concentration of active sites. As usually defined, the kcat/Km is the second-order rate constant that governs catalysis at low substrate concentration.

B1: penicillin acylase from Escherichia coli (EcPA) (Escherichia coli) (protein)
chain 1: EQSSSEIKIVRDEYGMPHIYANDTWHLFYGYGYVVAQDRLFQMEMARRSTQGTVAEVLGKDFVKFDKDIRRNYWPDAIRAQIAALSPEDMSILQGYADGMNAWIDKVNTNPETLLPKQFNTFGFTPKRWEPFDVAMIFVGTMANRFSDSTSEIDNLALLTALKDKYGVSQGMAVFNQLKWLVNPSAPTTIAVQESNYPLKFNQQNSQTA
chain 2: SNMWVIGKSKAQDAKAIMVNGPQFGWYAPAYTYGIGLHGAGYDVTGNTPFAYPGLVFGHNGVISWGSTAGFGDDVDIFAERLSAEKPGYYLHNGKWVKMLSREETITVKNGQAETFTVWRTVHGNILQTDQTTQTAYAKSRAWDGKEVASLLAWTHQMKAKNWQEWTQQAAKQALTINWYYADVNGNIGYVHTGAYPDRQSGHDPRLPVPGTGKWDWKGLLPFEMNPKVYNPQSGYIANWNNSPQKDYPASDLFAFLWGGADRVTEIDRLLEQKPRLTADQAWDVIRQTSRQDLNLRLFLPTLQAATSGLTQSDPRRQLVETLTRWDGINLLNDDGKTWQQPGSAILNVWLTSMLKRTVVAAVPMPFDKWYSASGYETTQDGPTGSLNISVGAKILYEAVQGDKSPIPQAVDLFAGKPQQEVVLAALEDTWETLSKRYGNNVSNWKTPAMALTFRANNFFGVPQAAAEETRHQAEYQNRGTENDMIVFSPTTSDRPVLAWDVVAPGQSGFIAPDGTVDKHYEDQLKMYENFGRKSLWLTKQDVEAHKESQEVLHVQR
notes: heterodimer of alpha (209 residues) and beta (557 residues) chains matured from one pac precursor; modified pBR322 vector with cat gene, expressed in E. coli TG-1, osmotic shock, hydrophobic chromatography; no tag mentioned
Regarding B1, the Km was determined as 25.0 ± 0.8 µM, the kcat was found to be 25 ± 1.4 s⁻¹ and the kcat/Km was determined as 1e+06 ± 90000 M⁻¹ s⁻¹.
